Test results as given in paper PMC7125077.

Tests used:
[1] = tested on: ctXPD K369E (Chaetomium thermophilum); experiment: fluorescence anisotropy; details: 5 mM Mg2+; no MAT1; text gives 54 nM; ctXPD: 20 mM HEPES pH 7.5, 50 mM KCl, 5 mM MgCl2, 1 mM TCEP, 5 nM DNA, room temperature; ctDDX11: 25 mM HEPES pH 7.5, 25 mM KCl, 1 mM MgSO4, 1 mM TCEP, 2 nM …
[2] = tested on: ctXPD R323S/R324S (Chaetomium thermophilum); experiment: fluorescence anisotropy; details: 5 mM Mg2+, ctXPD: 20 mM HEPES pH 7.5, 50 mM KCl, 5 mM MgCl2, 1 mM TCEP, 5 nM DNA, room temperature, ctDDX11: 25 mM HEPES pH 7.5, 25 mM KCl, 1 mM MgSO4, 1 mM TCEP, 2 nM …
[3] = tested on: ctXPD R333S/R334S (Chaetomium thermophilum); experiment: fluorescence anisotropy; details: 5 mM Mg2+, ctXPD: 20 mM HEPES pH 7.5, 50 mM KCl, 5 mM MgCl2, 1 mM TCEP, 5 nM DNA, room temperature, ctDDX11: 25 mM HEPES pH 7.5, 25 mM KCl, 1 mM MgSO4, 1 mM TCEP, 2 nM …
[4] = tested on: ctXPD R323E (Chaetomium thermophilum); experiment: fluorescence anisotropy; details: 5 mM Mg2+; no MAT1; ctXPD: 20 mM HEPES pH 7.5, 50 mM KCl, 5 mM MgCl2, 1 mM TCEP, 5 nM DNA, room temperature; ctDDX11: 25 mM HEPES pH 7.5, 25 mM KCl, 1 mM MgSO4, 1 mM TCEP, 2 nM …
[5] = tested on: ctXPD wild type (Chaetomium thermophilum); experiment: fluorescence anisotropy; details: 5 mM Mg2+; no MAT1; ctXPD: 20 mM HEPES pH 7.5, 50 mM KCl, 5 mM MgCl2, 1 mM TCEP, 5 nM DNA, room temperature; ctDDX11: 25 mM HEPES pH 7.5, 25 mM KCl, 1 mM MgSO4, 1 mM TCEP, 2 nM …
[6] = tested on: ctXPD wild type;ctMAT1Lock (Chaetomium thermophilum;Chaetomium thermophilum); experiment: fluorescence anisotropy; details: 5 mM Mg2+; equimolar ctMAT1Lock; ctXPD: 20 mM HEPES pH 7.5, 50 mM KCl, 5 mM MgCl2, 1 mM TCEP, 5 nM DNA, room temperature; ctDDX11: 25 mM HEPES pH 7.5, 25 mM KCl, 1 mM MgSO4, 1 mM TCEP, 2 nM …
[7] = tested on: ctDDX11 wild type (Chaetomium thermophilum); experiment: fluorescence anisotropy; details: 1 mM MgSO4, 25 mM HEPES pH 7.5, 25 mM KCl, 2 nM DNA, ctXPD: 20 mM HEPES pH 7.5, 50 mM KCl, 5 mM MgCl2, 1 mM TCEP, 5 nM DNA, room temperature, ctDDX11: 25 mM HEPES pH 7.5, 25 mM KCl, 1 mM MgSO4, 1 mM TCEP
[8] = tested on: ctXPD R333E/R334E (Chaetomium thermophilum); experiment: fluorescence anisotropy; details: 5 mM Mg2+; no MAT1; ctXPD: 20 mM HEPES pH 7.5, 50 mM KCl, 5 mM MgCl2, 1 mM TCEP, 5 nM DNA, room temperature; ctDDX11: 25 mM HEPES pH 7.5, 25 mM KCl, 1 mM MgSO4, 1 mM TCEP, 2 nM …
[9] = tested on: ctXPD R324E (Chaetomium thermophilum); experiment: fluorescence anisotropy; details: 5 mM Mg2+; no MAT1; ctXPD: 20 mM HEPES pH 7.5, 50 mM KCl, 5 mM MgCl2, 1 mM TCEP, 5 nM DNA, room temperature; ctDDX11: 25 mM HEPES pH 7.5, 25 mM KCl, 1 mM MgSO4, 1 mM TCEP, 2 nM …
[10] = tested on: ctDDX11 K427E/K428E (Chaetomium thermophilum); experiment: fluorescence anisotropy; details: 1 mM MgSO4, 25 mM HEPES pH 7.5, 25 mM KCl, 2 nM DNA, ctXPD: 20 mM HEPES pH 7.5, 50 mM KCl, 5 mM MgCl2, 1 mM TCEP, 5 nM DNA, room temperature, ctDDX11: 25 mM HEPES pH 7.5, 25 mM KCl, 1 mM MgSO4, 1 mM TCEP
[11] = molecular target: Chaetomium thermophilum XPD, wild type (Chaetomium thermophilum)
[12] = molecular target: Chaetomium thermophilum XPD, wild type (Chaetomium thermophilum); experiment: native gel or EMSA; native PAGE of ctXPD with the ctMAT1 fragments ctMAT1Archway and ctMAT1Lock at similar concentrations (Supplementary Fig. 2c); unbound fragment quantified
[13] = molecular target: ctXPD K369A (Chaetomium thermophilum)
[14] = molecular target: T1, human XPD, wild type (XPD-FLAG) (human) (UniProt P18074)
T1 sequence: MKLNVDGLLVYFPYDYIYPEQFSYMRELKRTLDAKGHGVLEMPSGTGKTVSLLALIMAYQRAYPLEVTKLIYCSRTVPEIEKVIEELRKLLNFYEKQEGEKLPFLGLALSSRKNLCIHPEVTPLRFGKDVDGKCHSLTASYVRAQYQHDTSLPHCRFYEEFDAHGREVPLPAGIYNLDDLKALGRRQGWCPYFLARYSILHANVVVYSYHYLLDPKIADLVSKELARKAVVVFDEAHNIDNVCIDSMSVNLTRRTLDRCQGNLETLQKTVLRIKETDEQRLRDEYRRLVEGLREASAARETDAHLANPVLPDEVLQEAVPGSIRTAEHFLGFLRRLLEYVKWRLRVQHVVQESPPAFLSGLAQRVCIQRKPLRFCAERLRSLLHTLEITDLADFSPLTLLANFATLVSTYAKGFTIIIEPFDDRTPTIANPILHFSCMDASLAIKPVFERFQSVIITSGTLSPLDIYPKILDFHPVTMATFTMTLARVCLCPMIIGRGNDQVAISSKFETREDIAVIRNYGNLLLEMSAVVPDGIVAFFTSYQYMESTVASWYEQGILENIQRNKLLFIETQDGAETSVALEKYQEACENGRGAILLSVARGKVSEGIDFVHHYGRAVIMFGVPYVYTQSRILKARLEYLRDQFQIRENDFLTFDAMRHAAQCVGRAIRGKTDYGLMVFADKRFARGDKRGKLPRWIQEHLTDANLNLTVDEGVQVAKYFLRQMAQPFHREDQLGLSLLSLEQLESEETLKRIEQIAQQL

[15] = equimolar ctMAT1Lock present (not bound by variant)

Substance: AGCTACCATGCCTGCACGAATTAAGCAATTCGTAATCATGGTCATAGC / GCTATGACCATGATTACGAATTGCTTGGAATCCTGACGAACTGTAG [splayed duplex DNA]
- Kd [1]: 55 nM
- Kd [2, 15]: 31 nM
- Kd ([2]; no MAT1): 51 nM
- Kd [3, 15]: 128 nM
- Kd ([3]; no MAT1): 154 nM
- Kd [4]: 41 nM
- Kd [5]: 66 nM
- Kd [6]: 379 nM
- Kd [7]: 30.8 nM
- Kd [8]: 108 nM
- Kd [9]: 72 nM
- Kd [10]: 50.8 nM

Substance: ctMAT1Archway (residues 83-157 of Chaetomium thermophilum MAT1) (domain or fragment)
- inhibition of ctXPD helicase activity (with ctp44, 5' overhang substrate) by titration of the ctMAT1 construct, IC50 [11]: 2990 nM
- percent unbound ctMAT1 fragment [12]: 84%

Substance: ctMAT1Lock (residues 1-157 of Chaetomium thermophilum MAT1) (domain or fragment)
- inhibition of ctXPD helicase activity (with ctp44, 5' overhang substrate) by titration of the ctMAT1 construct, IC50 [11]: 220 nM
- inhibition of helicase activity of the ctXPD variant by ctMAT1Lock, IC50 [13]: 263 nM
- percent unbound ctMAT1 fragment [12]: 12.8%

Substance: human CAK with MAT1 D97S/E100S (from UniProt P51948 1-309; P50613 1-346; P51946 1-323) (complex)
- in vitro run-off transcription with core-TFIIH lacking XPD (rIIH6), XPD and the CAK variant, residual activity against wild-type CAK [14]: 55%
